From patent US20060228349A1 (published 2006)

Key:
[1] = target: T1, biotin-Aβ1-20 (biotin (position not given)); test: BIACORE, biotin-Aβ1-20 as antigen; column IgG1#2
T1 peptide: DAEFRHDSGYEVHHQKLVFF

[2] = target: T1, biotin-Aβ1-20; test: BIACORE, biotin-Aβ1-20 as antigen; column IgG1#1
[3] = target: T2, Biotinylated ADDL preparations (bADDLs) (N-terminal biotin); test: BIACORE, bADDL as antigen; column IgG1#1
T2 construct: Oligomer, number of copies not fixed; also called biotinylated ADDL antigen; high molecular weight 10% bADDL

[4] = target: T2, Biotinylated ADDL preparations (bADDLs); test: BIACORE, bADDL as antigen; column IgG1#2
[5] = target: T2, Biotinylated ADDL preparations (bADDLs); test: BIACORE, bADDL as antigen; column Fab (row shifted one column to the left)
[6] = target: T1, biotin-Aβ1-20; test: BIACORE, biotin-Aβ1-20 as antigen; column Fab
[7] = target: T3, Aβ-derived diffusible ligands (synthetic ADDLs), soluble oligomers of amyloid β1-42; test: solution equilibrium titration, free IgG by ELISA, GraFit; SE 0.25
T3 construct: Oligomeric preparation of synthetic Aβ1-42 in DMSO/F12 (monomer, trimer, tetramer, 12-24mer on SDS-PAGE); number of copies not fixed; also called soluble Aβ oligomers

[8] = target: T4, SEC Peak 2 fraction of ADDLs (small aggregates, <30 kDa); test: sandwich ELISA on SEC peaks (FIG. 3)
T4 construct: Mostly monomer with small amounts of trimer and tetramer, no 12-24mer

[9] = target: T5, SEC Peak 1 fraction of ADDLs (large aggregates, >50 kDa); test: sandwich ELISA on SEC peaks (FIG. 3)
T5 construct: Monomer, trimer, tetramer and 12-24mer on SDS-PAGE

[10] = target: T6, amyloid beta (1-40) peptide; test: solution equilibrium titration, free IgG by ELISA, GraFit; SE 2.64
T6 construct: Used as monomer-like control; also called Aβ1-40; monomer preparation

[11] = target: T7, ADDL fibril preparation (Aβ1-42 fibrils); test: solution equilibrium titration, free IgG by ELISA, GraFit; SE 0.99
T7 construct: Fibrillar assembly; number of copies not fixed

[12] = target: T8, Aβ1-20 peptide; test: peptide ELISA
T8 peptide: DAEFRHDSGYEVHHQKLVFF

[13] = target: T3, Aβ-derived diffusible ligands …; test: solution equilibrium titration, free IgG by ELISA, GraFit; SE 0.74
[14] = target: T6, amyloid beta (1-40) peptide; test: solution equilibrium titration, free IgG by ELISA, GraFit; SE 21.86
[15] = target: T7, ADDL fibril preparation (Aβ1-42 fibrils); test: solution equilibrium titration, free IgG by ELISA, GraFit; SE 0.59
[16] = target: T7, ADDL fibril preparation (Aβ1-42 fibrils); test: solution equilibrium titration, free IgG by ELISA, GraFit; SE 3.69
[17] = target: T3, Aβ-derived diffusible ligands …; test: solution equilibrium titration, free IgG by ELISA, GraFit; SE 1.03
[18] = target: T6, amyloid beta (1-40) peptide; test: solution equilibrium titration, free IgG by ELISA, GraFit; SE 4.14
[19] = target: T3, Aβ-derived diffusible ligands …; test: solution equilibrium titration, free IgG by ELISA, GraFit; SE 0.52
[20] = target: T8, Aβ1-20 peptide; test: solution equilibrium titration, free IgG by ELISA, GraFit; SE 7.07
[21] = target: T6, amyloid beta (1-40) peptide; test: solution equilibrium titration, free IgG by ELISA, GraFit; SE 5.84
[22] = target: T7, ADDL fibril preparation (Aβ1-42 fibrils); test: solution equilibrium titration, free IgG by ELISA, GraFit; SE 2.40
[23] = target: T3, Aβ-derived diffusible ligands …; test: solution equilibrium titration, free IgG by ELISA, GraFit; SE 0.42
[24] = target: T7, ADDL fibril preparation (Aβ1-42 fibrils); test: solution equilibrium titration, free IgG by ELISA, GraFit; SE 1.60
[25] = target: T6, amyloid beta (1-40) peptide; test: solution equilibrium titration, free IgG by ELISA, GraFit; SE 2.07
[26] = target: T3, Aβ-derived diffusible ligands …; test: immunofluorescence of ADDLs bound to primary hippocampal neurons

B1: 20C2-6A, affinity matured humanized 20C2, IgG1 humanized A version (antibody, V domains shown)
VH: QVTLKESGPALVKPTQTLTLTCTFSGFSLSTSGMGVGWIRQPPGKALEWLAHIWWDDDKSYNPSLKSRLTISKDTSKNQVVLTMTNMDPVDTATYYCARRQLGLRSIDAMDYWGQGTTVTVSS
VL: DVVMTQSPLSLPVTPGEPASISCRSSQSILHSNGNTYLEWYLQKPGQSPQLLIYKVSNRFSGVPDRFSGSGSGTDFTLKISRVEAEDVGVYYCFQSSRVPLTFGQGTKLEIKR
notes: also called 4P1-22
Question: Which results are given for B1?
Answer: Kd [1]: 0.714 nM; Kd [2]: 0.544 nM; Kd [3]: 4.3 pM; Kd [4]: 0.024 nM

B2: 20C2-23A, affinity matured humanized 20C2, IgG1 humanized A version (antibody, V domains shown)
VH: QVTLKESGPALVKPTQTLTLTCTFSGFSLSTSGMGVGWIRQPPGKALEWLAHIWWDDDKSYNPSLKSRLTISKDTSKNQVVLTMTNMDPVDTATYYCARRQLGLRSIDAMDYWGQGTTVTVSS
VL: DVVMTQSPLSLPVTPGEPASISCRSSQSILHSNGNTYLEWYLQKPGQSPQLLIYKVSNRFSGVPDRFSGSGSGTDFTLKISRVEAEDVGVYYCHQSSKVPLTFGQGTKLEIKR
notes: also called 4P1-40
Question: Which Kd [1] does the source give for B2 here?
Answer: 1.5 nM

Question: And the Kd [2]?
Answer: 0.649 nM

Question: And the Kd [3]?
Answer: 85 pM

Question: What about the Kd [4] of the same binder?
Answer: 0.066 nM

B3: 20C2-8A, affinity matured humanized 20C2, IgG1 humanized A version (antibody, V domains shown)
VH: QVTLKESGPALVKPTQTLTLTCTFSGFSLSTSGMGVGWIRQPPGKALEWLAHIWWDDDKSYNPSLKSRLTISKDTSKNQVVLTMTNMDPVDTATYYCARRQLGLRSIDAMDYWGQGTTVTVSS
VL: DVVMTQSPLSLPVTPGEPASISCRSSQSILHSNGNTYLEWYLQKPGQSPQLLIYKVSNRFSGVPDRFSGSGSGTDFTLKISRVEAEDVGVYYCLQTTRVPLTFGQGTKLEIKR
notes: also called SJ-p2-39
Question: With B3 as the binder, how does the Kd [1] read?
Answer: 0.376 nM

Question: And the Kd [2]?
Answer: 0.14 nM

Question: What about the Kd [3] of the same binder?
Answer: 3 pM

Question: And the Kd [4]?
Answer: 0.0007 nM

B4: 20C2-8B, affinity matured humanized 20C2, IgG1 humanized B version (antibody, V domains shown)
VH: QVTLKESGPALVKPTQTLTLTCTLSGFSLSTSGMGVGWIRQPPGKALEWLAHIWWDDDKSYNPSLKSRLTISKDTSKNQVVLTMTNMDPVDTATYYCARRQLGLRSIDAMDYWGQGTTVTVSS
VL: DVVMTQSPLSLPVTPGEPASISCRSSQSILHSNGNTYLEWYLQKPGQSPQLLIYKVSNRFSGVPDRFSGSGSGTDFTLKISRVEAEDVGVYYCLQTTRVPLTFGQGTKLEIKR
notes: also called SJ-p2-39
Question: How did the Kd [1] turn out when B4 was run?
Answer: 0.064 nM

Question: What about the Kd [2] of the same binder?
Answer: 0.046 nM

Question: What about the Kd [3] of the same binder?
Answer: 13 pM

Question: And the Kd [4]?
Answer: 0.0008 nM

B5: Fab of mouse 20C2 (Fab, V domains shown)
VH: QVTLKESGPGILKPSQTLSLTCSLSGFSLSTSGMGVGWFRQPSGKGLEWLAHIWWDDDKSYNPSLKSRLTISKYTSRNQVFLTITSVDTADTATYYCARRQLGLRSIDAMDYWGQGTSVTVSS
VL: DVLMTQTPLSLPVSLGDQASISCRSSQSILHSNGNTYLEWYLQKPGQSPKLLIYKVSNRFSGVPDRFSGSGSGTDFTLKISRVEAEDLGVYYCFQGSLVPLTFGAGTKLELK
notes: also called Mouse-20C2 (Fab column)
Question: Which results are given for B5?
Answer: Kd [5]: 62 nM; Kd [6]: 83 nM

B6: murine anti-ADDL monoclonal antibody 2A10 (antibody, mouse IgG1, V domains shown)
VH: QVTLKESGPGILKPSQTLSLTCSFSGFSLSTSGMGVGWIRQPSGKGLEWLAHIWWDDDKYYNPSLKSQLTISKDTSRNQVFLKITSVDTADTATYYCARRSISTLVPEDYFDYWGQGTTLTVSS
VL: DVLMTQTPLSLPVSLGDQASISCRSSQSIVHSNGNTYLEWYLQKPGQSPKLLIYKVSNRFSGVPDRFSGSGSGTDFTLKISRVEAEDLGVYYCFQGSHVPLTFGAGTKLELK
Question: For B6, which Kd [7] is on record?
Answer: 2.29 nM

Question: Does B6 bind [8]?
Answer: binds

Question: Does B6 bind [9]?
Answer: binds

Question: And the Kd [10]?
Answer: 14.7 nM

Question: And the Kd [11]?
Answer: 6.72 nM

B7: murine anti-ADDL monoclonal antibody 1F6 (antibody, mouse IgG1, V domains shown)
VH: DVQLVESGGGLVQPGGSRKLSCAASGFTFSSFGMHWVRQAPEKGLEWVAYISSVSSTIYYADTVKGRFTISRDNPKNTLFLQMTSLRSEDTAMYYCARSGYGSSYGYGMDYWGQGTLVTVSS
VL: DVLMTQTPLSLPVSLGDQASISCRSSQSIVHSNGNTYLEWYLQKPGQSPKLLIYKVSNRFSGVPDRFSGSGSGTDFTLKISRVEAEDLGVYYCFQGSHVPLTFGAGTKLELK
Question: Does B7 bind [12]?
Answer: binds

B8: murine anti-ADDL monoclonal antibody 3B3 (antibody, mouse IgG1, V domains shown)
VH: DVQLVESGGGLVQPGGSRKLSCAASGFTFSSFGMHWVRQAPEKGLEWVAYISRGSSTIYYADTVKGRFTISRDNPKNTLFLQMTSLRSEDTAMYYCARGITTALDYWGQGTSVTVSS
VL: DVLMTQTPLSLPVSLGDQASISCRSSQSIVHSNGNTYLEWYLQKPGQSPKLLIYKASNRFSGVPDRFSGSGSGTDFTLKISRVEAEDLGVYYCFQGSHVPPTFGGGTKLEIK
Question: Which results are given for B8?
Answer: binding result [12]: binds; Kd [13]: 10 nM; Kd [14]: 105 nM; Kd [15]: 7.21 nM

B9: murine anti-ADDL monoclonal antibody 4C2 (antibody, mouse IgG1, V domains shown)
VH: QVTLKESGPGILKPSQTLSLTCSFSGFSLSTSGMGVGWIRQPSGKGLEWLAHIWWDDDKYYNPSLKSQLTISKDTSRNQVFLKITSVDTADTATYYCARRSITTVVPEDYFAYWGQGTTLTVSS
VL: DVLMTQSPLSLPVSLGDQASISCRSSQSIVHSNGNTYLEWYLQKPGQSPKLLIYKVSNRFSGVPDRFSGSGSGTDFTLKISRVEAEDLGVYYCFQGSHVPLTFGAGTKLELK
Question: B9 was tested. Which Kd [16] did it give?
Answer: 19.2 nM

Question: Does B9 bind [8]?
Answer: binds

Question: Does B9 bind [9]?
Answer: binds

Question: And the Kd [17]?
Answer: 8.08 nM

Question: And the Kd [18]?
Answer: 21.9 nM

B10: murine anti-ADDL monoclonal antibody 2D6 (antibody, mouse IgG1, V domains shown)
VH: QVTLKESGPGILKPSQTLSLTCSFSGFSLSTSGMGVGWIRQPSGKGLEWLAHIWWDDDKYYNPSLKSQLTISKDTSRNQVFLKITSVDTADTATYYCARRSISTVIPEDYFDYWGQGTILTVSS
VL: DVLMTQTPLSLTVSLGDQASISCRSSQSIVHSNGNTYLEWYLQKPGQSPKLLIYKVSNRFSGVPDRFSGSGSGTDFTLKISRVEAEDLGVYYCFQGSHVPLTFGAGTKLELK
Question: Which results are given for B10?
Answer: Kd [19]: 5.05 nM; Kd [20]: 30.2 nM; Kd [21]: 25.7 nM; Kd [22]: 14.4 nM

B11: murine anti-ADDL monoclonal antibody 4E2 (antibody, mouse IgG1, V domains shown)
VH: QVTLKESGPGILKPSQTLSLTCSFSGFSLSTSGMGVGWIRQPSGKGLEWLAHIWWDDDKYYNPSLKSQLTISKDTSRNQVFLKITSVDTADTATYYCARRSINSVVPEDYFDYWGQGTTLTVSL
VL: DVLMTQTPLSLPVSLGDQASISCRSSQSIVHSNGNTYLEWYLQKPGQSPKLLIYKVSNRFSGVPDRFSGSGSGTDFTLKISRVEAEDLGVYYCFQGSHVPLTFGAGTKLELK
Question: B11 was tested. Which Kd [23] did it give?
Answer: 4.26 nM

Question: Does B11 bind [8]?
Answer: binds

Question: Does B11 bind [9]?
Answer: binds

Question: And the Kd [24]?
Answer: 9.4 nM

Question: What about the Kd [25] of the same binder?
Answer: 20.2 nM

B12: murine anti-ADDL monoclonal antibody 2H4 (antibody, mouse IgG2a, V domains shown)
VH: DVQLVESGGGLVQPGGSRKLSCAASGFTFSSFGMHWVRQAPEKGLEWVAYIRSGSSTIYYADTVKGRFTISRDNPKNTLFLQMTSLRSEDTAMYYCTRGGNYYGSSRFAYWGQGTLVTVSA
VL: DIKMTQSPSSMYASLGERVTITCKASQDINSYLSWFQQKPGKSPKTLIYRANRFVDGVPSRFSGSGSGQDYSLTISSLEYEDMGIYFCLQYDEFPLTFGAGTKLVLK
Question: Does B12 bind [26]?
Answer: binds
